Measured values from the supplement of paper PMC9112550, “Optimization of the antimicrobial peptide Bac7 by deep mutational scanning” (BMC Biology, 2022).
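Also: peptides expressed intracellularly from a pBAD plasmid library in pooled LB shake-flask culture, induced with 0.3% L-arabinose, DNA abundance read by NGS, three biological replicates, DESeq2 with apeglm shrinkage.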

The sequences below were run on Escherichia coli TOP10 (assay: shrunken log2 fold change of peptide-encoding DNA abundance (4.5 h post-induction vs induction); higher = less antimicrobial activity (less host growth inhibition)). Conditions: time post-induction: 4.5 h; library: site-saturation at positions 5, 18, 19, 20.
For RRIRARPPRLPRPRPRPKWWPRP, the “shrunken log2 fold change” value was 0.149. RRIRGRPPRLPRPRPRPWEPPRP was tested, and the “shrunken log2 fold change” value was 0.177. In the case of RRIRGRPPRLPRPRPRPSEKPRP, the “shrunken log2 fold change” value is reported as 1.49. RRIRGRPPRLPRPRPRPVYYPRP was tested, and the “shrunken log2 fold change” value was 0.164. In the case of RRIRGRPPRLPRPRPRPICRPRP, the “shrunken log2 fold change” value is reported as -0.0289. RRIRVRPPRLPRPRPRPEHIPRP was tested, and the “shrunken log2 fold change” value was -0.0362. With RRIRRRPPRLPRPRPRPINWPRP the “shrunken log2 fold change” value was -0.0685. With RRIRKRPPRLPRPRPRPALSPRP the “shrunken log2 fold change” value was 0.253. For RRIRTRPPRLPRPRPRPNTDPRP, the “shrunken log2 fold change” value was -0.615. With RRIRGRPPRLPRPRPRPFARPRP the “shrunken log2 fold change” value was 0.484. With RRIRMRPPRLPRPRPRPEIWPRP the “shrunken log2 fold change” value was 1.2. In the case of RRIRGRPPRLPRPRPRPLNEPRP, the “shrunken log2 fold change” value is reported as 0.57. In the case of RRIRWRPPRLPRPRPRPNQWPRP, the “shrunken log2 fold change” value is reported as 0.223. With RRIRPRPPRLPRPRPRPKCKPRP the “shrunken log2 fold change” value was -0.207. In the case of RRIRYRPPRLPRPRPRPKSKPRP, the “shrunken log2 fold change” value is reported as -0.428. In the case of RRIRARPPRLPRPRPRPSAVPRP, the “shrunken log2 fold change” value is reported as 0.282. For RRIRVRPPRLPRPRPRPNPWPRP, the “shrunken log2 fold change” value was -0.0698. With RRIRERPPRLPRPRPRPPILPRP the “shrunken log2 fold change” value was -0.471. With RRIRPRPPRLPRPRPRPYDDPRP the “shrunken log2 fold change” value was -0.0211. For RRIRMRPPRLPRPRPRPYVNPRP, the “shrunken log2 fold change” value was -0.284. For RRIRTRPPRLPRPRPRPKQNPRP, the “shrunken log2 fold change” value was 0.638. In the case of RRIRVRPPRLPRPRPRPVQLPRP, the “shrunken log2 fold change” value is reported as 0.258. For RRIRQRPPRLPRPRPRPCFRPRP, the “shrunken log2 fold change” value was -0.155. RRIRHRPPRLPRPRPRPPTHPRP was tested, and the “shrunken log2 fold change” value was -0.117. For RRIRCRPPRLPRPRPRPDNKPRP, the “shrunken log2 fold change” value was -0.795. RRIRMRPPRLPRPRPRPIHGPRP was tested, and the “shrunken log2 fold change” value was 0.0579. For RRIRFRPPRLPRPRPRPEMWPRP, the “shrunken log2 fold change” value was -0.0843. In the case of RRIRIRPPRLPRPRPRPWKEPRP, the “shrunken log2 fold change” value is reported as -0.12. For RRIRARPPRLPRPRPRPDNDPRP, the “shrunken log2 fold change” value was -0.196. With RRIRGRPPRLPRPRPRPMKDPRP the “shrunken log2 fold change” value was 0.55. With RRIRHRPPRLPRPRPRPYFCPRP the “shrunken log2 fold change” value was -0.444. RRIRRRPPRLPRPRPRPLRWPRP was tested, and the “shrunken log2 fold change” value was 0.732. In the case of RRIRSRPPRLPRPRPRPEQGPRP, the “shrunken log2 fold change” value is reported as 0.0683. For RRIRSRPPRLPRPRPRPKDYPRP, the “shrunken log2 fold change” value was -0.128. With RRIRWRPPRLPRPRPRPGAIPRP the “shrunken log2 fold change” value was -0.096. With RRIRERPPRLPRPRPRPCDKPRP the “shrunken log2 fold change” value was 0.0148. In the case of RRIRPRPPRLPRPRPRPQLLPRP, the “shrunken log2 fold change” value is reported as 0.271. In the case of RRIRMRPPRLPRPRPRPIALPRP, the “shrunken log2 fold change” value is reported as 0.0271. With RRIRYRPPRLPRPRPRPQCRPRP the “shrunken log2 fold change” value was -0.23. With RRIRPRPPRLPRPRPRPTAYPRP the “shrunken log2 fold change” value was -0.203. With RRIRYRPPRLPRPRPRPDHMPRP the “shrunken log2 fold change” value was -0.552. For RRIRHRPPRLPRPRPRPSAVPRP, the “shrunken log2 fold change” value was -0.341. For RRIRYRPPRLPRPRPRPLWYPRP, the “shrunken log2 fold change” value was -0.824. RRIRERPPRLPRPRPRPDYNPRP was tested, and the “shrunken log2 fold change” value was -0.53. In the case of RRIRQRPPRLPRPRPRPVRAPRP, the “shrunken log2 fold change” value is reported as 0.38. For RRIRVRPPRLPRPRPRPHCVPRP, the “shrunken log2 fold change” value was -0.315. RRIRRRPPRLPRPRPRPMIHPRP was tested, and the “shrunken log2 fold change” value was -0.0319. RRIRSRPPRLPRPRPRPNYAPRP was tested, and the “shrunken log2 fold change” value was -0.327. For RRIRSRPPRLPRPRPRPVIEPRP, the “shrunken log2 fold change” value was -0.186. For RRIRPRPPRLPRPRPRPMCHPRP, the “shrunken log2 fold change” value was -0.22. In the case of RRIRYRPPRLPRPRPRPDWKPRP, the “shrunken log2 fold change” value is reported as -0.208. With RRIRMRPPRLPRPRPRPVTSPRP the “shrunken log2 fold change” value was -0.0914. With RRIRIRPPRLPRPRPRPFNYPRP the “shrunken log2 fold change” value was -0.149. RRIRCRPPRLPRPRPRPIMRPRP was tested, and the “shrunken log2 fold change” value was 0.415. With RRIRERPPRLPRPRPRPFGEPRP the “shrunken log2 fold change” value was -0.122. In the case of RRIRSRPPRLPRPRPRPSPDPRP, the “shrunken log2 fold change” value is reported as -0.218. With RRIRKRPPRLPRPRPRPVNIPRP the “shrunken log2 fold change” value was -0.0139. In the case of RRIRVRPPRLPRPRPRPSNRPRP, the “shrunken log2 fold change” value is reported as -0.147. In the case of RRIRTRPPRLPRPRPRPPHKPRP, the “shrunken log2 fold change” value is reported as 0.242. RRIRHRPPRLPRPRPRPFRKPRP was tested, and the “shrunken log2 fold change” value was 0.00884. For RRIRFRPPRLPRPRPRPSKEPRP, the “shrunken log2 fold change” value was 1.3. RRIRCRPPRLPRPRPRPQATPRP was tested, and the “shrunken log2 fold change” value was 0.122. In the case of RRIRPRPPRLPRPRPRPCFSPRP, the “shrunken log2 fold change” value is reported as -0.304. With RRIRKRPPRLPRPRPRPSCKPRP the “shrunken log2 fold change” value was 0.034. With RRIRHRPPRLPRPRPRPQARPRP the “shrunken log2 fold change” value was 0.225. In the case of RRIRGRPPRLPRPRPRPYWMPRP, the “shrunken log2 fold change” value is reported as -0.34. In the case of RRIRSRPPRLPRPRPRPCSLPRP, the “shrunken log2 fold change” value is reported as -0.484. RRIRMRPPRLPRPRPRPIQNPRP was tested, and the “shrunken log2 fold change” value was -0.157. With RRIRHRPPRLPRPRPRPHVPPRP the “shrunken log2 fold change” value was 0.084. RRIRRRPPRLPRPRPRPTENPRP was tested, and the “shrunken log2 fold change” value was 0.464. With RRIRFRPPRLPRPRPRPADFPRP the “shrunken log2 fold change” value was -0.09. With RRIRQRPPRLPRPRPRPADLPRP the “shrunken log2 fold change” value was -0.0217. With RRIRKRPPRLPRPRPRPLEKPRP the “shrunken log2 fold change” value was 0.219. RRIRRRPPRLPRPRPRPTTQPRP was tested, and the “shrunken log2 fold change” value was 0.356. With RRIRQRPPRLPRPRPRPSFIPRP the “shrunken log2 fold change” value was -0.807.
